Data published in patent US20250382384A1 (BEONE MEDICINES I, published 2025).
Substitutions are numbered along the chain they refer to. One block for each binder: values may come before it.

Experiments:
[1] = biological target: T1, human MUC1 SEA domain protein (human, UniProt P15941 1036-1155); assay: SPR (Biacore 2000), antibody captured, huMUC1 SEA analyte, 1:1 binding
T1 construct: also called HuMUC1-SEA; huMUC1 SEA
T1 sequence: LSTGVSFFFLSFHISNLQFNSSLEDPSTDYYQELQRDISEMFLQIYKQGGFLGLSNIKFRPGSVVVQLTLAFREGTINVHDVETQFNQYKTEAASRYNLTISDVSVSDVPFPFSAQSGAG

[2] = biological target: T1, human MUC1 SEA domain protein; assay: SPR, antibody captured, huMUC1 SEA analyte

B1: BG138P-Bz0 (antibody, human IgG1, V domains shown)
VH: QVQLVQSGAEVKKPGASVKVSCKASGYTFTTYTMHWIKQAPGQGLEWIGYINPGSDYTHYNQKFKDKATLTADKSASTAYMELYSLRSEDTAVYYCARQGNYAAYYFDYWGQGTLVTVSS
VL: DIQMTQSPSSLSASVGDRVTITCRASGNIHNFLVWYQQKPGKSPKLLVYNAKTLTDGVPSRFSGSGSGTQYSLTISSLQPEDVATYYCQNFWNVPFTFGSGTKLEIK
notes: human IgG1/Ckappa
Kd [1]: 0.464 nM

B2: BG138P-Hz0 (antibody, human IgG1, V domains shown)
VH: B1 VH with I37V, K38R, G44R, I48M, K67R, A68V, L70I, A72R, K74T, Y84S
VL: B1 VL with S43V, V48I, Q70D, Y71F, S72T, S100Q
notes: human IgG1/Ckappa
Kd [1]: 0.527 nM

B3: BG138P-Bz8 (antibody, human IgG1, V domains shown)
VH: B1 VH with A72R
VL: B1 VL
notes: human IgG1/Ckappa
Kd [1]: 0.608 nM

B4: BG138P-Bz1 (antibody, human IgG1, V domains shown)
VH: B1 VH with I37V
VL: B1 VL
notes: human IgG1/Ckappa
Kd [1]: 0.503 nM

B6: BG138P-Bz14 (antibody, human IgG1, V domains shown)
VH: B1 VH
VL: B1 VL with Y71F
notes: human IgG1/Ckappa
Kd [1]: 0.608 nM

B7: BG138P-Bz12 (antibody, human IgG1, V domains shown)
VH: B1 VH
VL: B1 VL with V48I
notes: human IgG1/Ckappa
Kd [1]: 0.501 nM

B8: BG138P-Bz3 (antibody, human IgG1, V domains shown)
VH: B1 VH with G44R
VL: B1 VL
notes: human IgG1/Ckappa
Kd [1]: 0.532 nM

B10: BG138P-Bz15 (antibody, human IgG1, V domains shown)
VH: B1 VH
VL: B1 VL with S72T
notes: human IgG1/Ckappa
Kd [1]: 0.493 nM

B11: BG138P-Bz6 (antibody, human IgG1, V domains shown)
VH: B1 VH with A68V
VL: B1 VL
notes: human IgG1/Ckappa
Kd [1]: 0.518 nM

B13: huBG138P-Hz4 (antibody, V domains shown)
VH: B1 VH with I37V, K38R, I48M, K67R, A68V, L70I, Y84S
VL: B1 VL with V48I, D56S, S72T, S100Q
notes: humanized; constant regions not restated
Kd [2]: 0.223 nM

B14: BG138P-Bz11 (antibody, human IgG1, V domains shown)
VH: B1 VH
VL: B1 VL with S43V
notes: human IgG1/Ckappa
Kd [1]: 0.513 nM

B18: BG138P-Bz4 (antibody, human IgG1, V domains shown)
VH: B1 VH with I48M
VL: B1 VL
notes: human IgG1/Ckappa
Kd [1]: 0.488 nM

B20: huBG138P-Hz3 (antibody, V domains shown)
VH: B1 VH with I37V, K38R, I48M, K67R, A68V, L70I, Y84S
VL: B1 VL with S43V, V48I, D56S, Q70D, S72T, S100Q
notes: as for B13
Kd [2]: 0.242 nM

B21: huBG138P-Hz1 (antibody, V domains shown)
VH: B1 VH with I37V, K38R, G44R, I48M, K67R, A68V, L70I, K74T, Y84S
VL: B1 VL with S43V, V48I, D56S, Q70D, S72T, S100Q
notes: humanized; constant regions not restated (IgG1/Ckappa vector used for the first round)
Kd [2]: 0.241 nM

The remaining binders from weak to strong by Kd [1], led by results:

Kd [1]: 0.476 nM
B12: BG138P-Bz9 (antibody, human IgG1, V domains shown)
VH: B1 VH with K74T
VL: B1 VL
notes: human IgG1/Ckappa

Kd [1]: 0.475 nM
B16: BG138P-Bz5 (antibody, human IgG1, V domains shown)
VH: B1 VH with K67R
VL: B1 VL
notes: human IgG1/Ckappa

Kd [1]: 0.466 nM
B15: BG138P-Bz16 (antibody, human IgG1, V domains shown)
VH: B1 VH
VL: B1 VL with S100Q
notes: human IgG1/Ckappa

Kd [1]: 0.453 nM
B9: BG138P-Bz2 (antibody, human IgG1, V domains shown)
VH: B1 VH with K38R
VL: B1 VL
notes: human IgG1/Ckappa

Kd [1]: 0.453 nM
B17: BG138P-Bz13 (antibody, human IgG1, V domains shown)
VH: B1 VH
VL: B1 VL with Q70D
notes: human IgG1/Ckappa

Kd [1]: 0.448 nM
B5: BG138P-Bz10 (antibody, human IgG1, V domains shown)
VH: B1 VH with Y84S
VL: B1 VL
notes: human IgG1/Ckappa

Kd [1]: 0.407 nM
B19: BG138P-Bz7 (antibody, human IgG1, V domains shown)
VH: B1 VH with L70I
VL: B1 VL
notes: human IgG1/Ckappa
